These results are taken from article PMC4746636.

Values joined by “and” are separate entries in the source; they are usually repeats but may differ in a detail not shown here. Equal values may be shown once.

One may read the stoichiometry N as the number of molecules, sites or subunits per partner or assembly.

One data set deals with TRF2 (UniProt Q15554). Briefly: AFM imaging. The note with it: N = 126; same conditions as T270; EMSA: 5 nM DNA, 100 nM TRF2, agarose gel; buffer, salt, pH and temperature not given in the material; AFM compaction comparison of TRF2ΔB at 300 nM protein. A general note: Mobility shift assays separate free from complexed probe on a gel.
For data set [1], the target named is T1, TRF2 (full length, recombinant His6-tagged) (human), Q15554.
T1 chain: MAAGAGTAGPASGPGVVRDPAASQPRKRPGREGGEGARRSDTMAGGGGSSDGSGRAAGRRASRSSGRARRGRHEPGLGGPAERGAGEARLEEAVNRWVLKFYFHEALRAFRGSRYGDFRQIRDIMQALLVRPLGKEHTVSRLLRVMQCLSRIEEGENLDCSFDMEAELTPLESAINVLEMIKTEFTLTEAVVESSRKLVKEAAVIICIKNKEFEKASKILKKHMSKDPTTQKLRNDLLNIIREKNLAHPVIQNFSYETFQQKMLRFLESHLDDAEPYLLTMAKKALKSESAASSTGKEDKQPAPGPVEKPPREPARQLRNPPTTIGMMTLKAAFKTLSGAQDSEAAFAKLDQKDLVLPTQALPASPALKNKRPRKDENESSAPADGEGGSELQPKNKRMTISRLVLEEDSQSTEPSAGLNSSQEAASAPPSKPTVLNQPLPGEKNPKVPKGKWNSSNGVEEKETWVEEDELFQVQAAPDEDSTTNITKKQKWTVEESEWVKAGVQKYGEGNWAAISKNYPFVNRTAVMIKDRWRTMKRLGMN
Briefly: AFM volume analysis; TRF2 (400 nM, mixed with an equal volume of DNA) incubated with linear T270 DNA (270 TTAGGG repeats) for 30 min in 50 mM HEPES, 150 mM KCl, pH 7.5, diluted 10 fold and deposited on mica; volumes of small DNA-bound complexes (< 500 nm^3). The note with it: remark: other sources report otherwise.

For data set [2], the target named is T1, TRF2 (full length, recombinant …). The data set can be described thus: AFM volume analysis; TRF2 protein alone deposited on mica; AFM volume converted to oligomeric state by a calibration curve of volume against molecular weight; monomer to dimer. The conditions noted are these: remark: other sources report otherwise.

With DNA with no telomeric sequences, the binding signal (% DNA with large complexes) with TRF2 is less than 8.

B1: TRF2 (full length, recombinant His6-tagged), Q15554 1-542 (natural protein)
chain: T1 chain
Turning to B1, the stoichiometry N is 2 and 4 in data set [1]; 2 in data set [2].
